The supplement of paper PMC7877785
± gives the uncertainty stated by the source.

Assay: self-splicing fitness, log relative to wild type (ln ratio); higher = more splicing; Tetrahymena group I intron in knt gene, E. coli kanamycin selection, DiMSum; sequences stand for … in CUCUCU…GGAGGGAAAAGUUAUCAGGCAUGCACCUGGUAGCUAGUCUUUAAACCAAUAGAUUGCAUCGGUUUAAAAGGCAAGACCGUCAAAUUGCGGGAAAGGGGUCAACAGCCGUUCAGUACCAAGUCUCAGGGGAAACUUUGAGAUGGCCUUGCAAAGGGUAUGGUAAUAAGCUGACGGACAUGGUCCUAACCACGCAGCCAAGUCCUAAGUCAACAGAUCUUCUGUUGAUAUGGAUGCAGUUCACAGACUAAAUGUCGGUCGGGGAAGAUGUAUUCUUCUCAUAAGAUAUAGUCGGACCUCUCCUUAAUGGGAGCUAGCGGAUGAAGUGAUGCAACACUGGAGCCGCUGGGAACUAAUUUGUAUGCGAAAGUAUAUUGAUUAGUUUUGGAGUACUCGUGGUCG
In short: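 Fitness was computed with DiMSum as the error-weighted combination of replicate fold changes, kanamycin versus none, each normalised to wild type. The library randomised all eight intron nucleotides of the P1ex region, with the intron placed in the knt kanamycin-resistance gene on pET-22b(+) in E. coli BL21(DE3). Six replicate transformations were grown overnight at 37°C or 30°C on LB agar with or without 25 μg/mL kanamycin, plus 100 μg/mL carbenicillin, 50 μM IPTG and 0.2% rhamnose. Pooled colonies were amplicon-sequenced on an Illumina HiSeq 2500.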

Sequence	self-splicing fitness (ln) (30 °C)	self-splicing fitness (ln) (37 °C)
ACUAAGCAAUAUUACGACUU	-0.429 ± 0.093	0.924 ± 0.12
ACUAAGCAAUAUUACGAUUA	-0.928 ± 0.12	-0.502 ± 0.1
ACUAAGCAAUAUUACGCCUA	-1.41 ± 0.13	-0.734 ± 0.13
ACUAAGCAAUAUUACGCUCG	-0.345 ± 0.09	-0.528 ± 0.11
ACUAAGCAAUAUUACGCUGA	-2.16 ± 0.17	-1.31 ± 0.15
ACUAAGCAAUAUUACGGAAA	-2.78 ± 0.37	-1.7 ± 0.23
ACUAAGCAAUAUUACGGAUC	-2.21 ± 0.13	-1.3 ± 0.14
ACUAAGCAAUAUUACGGCGC	-0.144 ± 0.099	-0.477 ± 0.096
ACUAAGCAAUAUUACGGGAU	-2.17 ± 0.073	-1.3 ± 0.097
ACUAAGCAAUAUUACGGUAU	-3.24 ± 0.17	-1.73 ± 0.13
ACUAAGCAAUAUUACGUAAC	-4.39 ± 0.26	-2.48 ± 0.24
ACUAAGCAAUAUUACGUUCG	-1.06 ± 0.074	-0.408 ± 0.092
ACUAAGCAAUAUUACGUUUU	-2.55 ± 0.093	-1.54 ± 0.1
ACUCAGCAAUAUUACGAAUA	-1.99 ± 0.14	-0.941 ± 0.15
ACUCAGCAAUAUUACGACCA	-1.19 ± 0.084	-0.64 ± 0.12
ACUCAGCAAUAUUACGACCC	-0.845 ± 0.19	-2.22 ± 0.22
ACUCAGCAAUAUUACGACUC	-0.493 ± 0.054	-0.0647 ± 0.068
ACUCAGCAAUAUUACGCAUC	-2.72 ± 0.15	-1.48 ± 0.11
ACUCAGCAAUAUUACGCCAA	-1.12 ± 0.17	-2.5 ± 0.21
ACUCAGCAAUAUUACGCGAC	-2.16 ± 0.14	-1.85 ± 0.15
ACUCAGCAAUAUUACGCGCU	-1.41 ± 0.14	-0.1 ± 0.16
ACUCAGCAAUAUUACGCGGC	-3.2 ± 0.25	–
ACUCAGCAAUAUUACGCUCU	-0.15 ± 0.067	0.559 ± 0.094
ACUCAGCAAUAUUACGCUUA	-1.14 ± 0.14	-0.0124 ± 0.12
ACUCAGCAAUAUUACGGCAA	-1.24 ± 0.094	-0.795 ± 0.099

Sequence	self-splicing fitness (ln) (30 °C)	self-splicing fitness (ln) (37 °C)
ACUCAGCAAUAUUACGGCCC	-1.32 ± 0.15	-0.343 ± 0.19
ACUCAGCAAUAUUACGGCCU	-0.0739 ± 0.079	-0.0329 ± 0.099
ACUCAGCAAUAUUACGGCUA	-0.553 ± 0.089	0.149 ± 0.093
ACUCAGCAAUAUUACGGGCU	-0.98 ± 0.067	-0.954 ± 0.095
ACUCAGCAAUAUUACGGGUU	-3.64 ± 0.17	-2.37 ± 0.19
ACUCAGCAAUAUUACGGUGU	-2.56 ± 0.085	-1.34 ± 0.079
ACUCAGCAAUAUUACGGUUG	-4.32 ± 0.17	-2.77 ± 0.18
ACUCAGCAAUAUUACGUAUA	-2.19 ± 0.11	-1.11 ± 0.1
ACUCAGCAAUAUUACGUCAC	-3.57 ± 0.15	-1.97 ± 0.15
ACUCAGCAAUAUUACGUCAG	-2.31 ± 0.1	-2.68 ± 0.17
ACUCAGCAAUAUUACGUGGC	-3.04 ± 0.14	-2.9 ± 0.17
ACUCAGCAAUAUUACGUGGG	-3.7 ± 0.18	-2.9 ± 0.2
ACUCAGCAAUAUUACGUGUC	-3.74 ± 0.16	-2.21 ± 0.17
ACUCAGCAAUAUUACGUGUU	-3.14 ± 0.1	-1.28 ± 0.088
ACUGAGCAAUAUUACGACAA	-2.96 ± 0.2	-2.4 ± 0.23
ACUGAGCAAUAUUACGACGA	-1.3 ± 0.13	-0.569 ± 0.12
ACUGAGCAAUAUUACGACUG	-3.2 ± 0.34	-1.68 ± 0.23
ACUGAGCAAUAUUACGACUU	-1.4 ± 0.11	-0.511 ± 0.14
ACUGAGCAAUAUUACGAUUA	-3.39 ± 0.3	-1.78 ± 0.18
ACUGAGCAAUAUUACGCAAA	-2.29 ± 0.38	-1.93 ± 0.34
ACUGAGCAAUAUUACGCACU	-0.721 ± 0.13	-0.386 ± 0.17
ACUGAGCAAUAUUACGCCCC	-2.6 ± 0.34	–
ACUGAGCAAUAUUACGCCGA	-3.61 ± 0.47	-1.33 ± 0.23
ACUGAGCAAUAUUACGCCGG	-2.48 ± 0.3	–
ACUGAGCAAUAUUACGCGCG	-1.14 ± 0.11	-0.367 ± 0.12

Sequence	self-splicing fitness (ln) (30 °C)	self-splicing fitness (ln) (37 °C)
ACUGAGCAAUAUUACGCUAC	-3.24 ± 0.24	–
ACUGAGCAAUAUUACGCUGC	–	-1.98 ± 0.33
ACUGAGCAAUAUUACGCUUG	-3.28 ± 0.3	-2.75 ± 0.31
ACUGAGCAAUAUUACGGAAU	-3.39 ± 0.35	-1.87 ± 0.23
ACUGAGCAAUAUUACGGAUC	–	-1.91 ± 0.35
ACUGAGCAAUAUUACGGCAU	-0.643 ± 0.071	-0.708 ± 0.1
ACUGAGCAAUAUUACGGCUG	-1.18 ± 0.16	-0.804 ± 0.19
ACUGAGCAAUAUUACGGGAA	-2.94 ± 0.17	-2.48 ± 0.24
ACUGAGCAAUAUUACGGGAU	-3.03 ± 0.17	-2.18 ± 0.22
ACUGAGCAAUAUUACGGUGC	-3.32 ± 0.19	-1.9 ± 0.18
ACUGAGCAAUAUUACGGUGU	-3.14 ± 0.13	-1.41 ± 0.1
ACUGAGCAAUAUUACGUAUA	-2.58 ± 0.2	-1.97 ± 0.25
ACUGAGCAAUAUUACGUUAC	-3.95 ± 0.3	-2.9 ± 0.38
ACUUAGCAAUAUUACGAAGC	–	-2.25 ± 0.5
ACUUAGCAAUAUUACGACCC	0.555 ± 0.32	–
ACUUAGCAAUAUUACGAGUU	-2.42 ± 0.12	-0.552 ± 0.14
ACUUAGCAAUAUUACGAUAA	-2.81 ± 0.27	-0.457 ± 0.3
ACUUAGCAAUAUUACGCACU	-0.553 ± 0.093	0.532 ± 0.12
ACUUAGCAAUAUUACGCAGC	-1.98 ± 0.4	-1.43 ± 0.19
ACUUAGCAAUAUUACGCCCC	-0.135 ± 0.33	–
ACUUAGCAAUAUUACGCCCG	-1.55 ± 0.17	0.138 ± 0.28
ACUUAGCAAUAUUACGCGAU	-3.66 ± 0.36	-1.13 ± 0.17
ACUUAGCAAUAUUACGCGCG	-1.56 ± 0.11	-0.437 ± 0.12
ACUUAGCAAUAUUACGCGGA	-2.36 ± 0.11	-0.613 ± 0.088
ACUUAGCAAUAUUACGCUAC	-2.59 ± 0.34	-1.9 ± 0.33

Sequence	self-splicing fitness (ln) (30 °C)	self-splicing fitness (ln) (37 °C)
ACUUAGCAAUAUUACGCUAU	-3.05 ± 0.24	-2.09 ± 0.23
ACUUAGCAAUAUUACGGAGA	-3.19 ± 0.28	-2.07 ± 0.2
ACUUAGCAAUAUUACGGAGC	-3.46 ± 0.3	-0.469 ± 0.18
ACUUAGCAAUAUUACGGGGC	-3.2 ± 0.18	-2.55 ± 0.23
ACUUAGCAAUAUUACGGUAC	-3.36 ± 0.21	-3.57 ± 0.42
ACUUAGCAAUAUUACGGUUC	-2.73 ± 0.16	-3.35 ± 0.26
ACUUAGCAAUAUUACGUAAU	-2.39 ± 0.1	-1.54 ± 0.12
ACUUAGCAAUAUUACGUCAA	-4.05 ± 0.33	-3.36 ± 0.3
ACUUAGCAAUAUUACGUCUG	-1.82 ± 0.11	-0.782 ± 0.15
ACUUAGCAAUAUUACGUGUA	-2.37 ± 0.11	-1.43 ± 0.095
ACUUAGCAAUAUUACGUGUC	-3.37 ± 0.16	-2.7 ± 0.25
ACUUAGCAAUAUUACGUUCG	-1.52 ± 0.18	-0.802 ± 0.18
ACUUAGCAAUAUUACGUUGA	-4.69 ± 0.36	-2.06 ± 0.12
AGAAAGCAAUAUUACGAGAA	-2.63 ± 0.27	-1.24 ± 0.25
AGAAAGCAAUAUUACGAGAG	-3.2 ± 0.16	-2.44 ± 0.17
AGAAAGCAAUAUUACGCCCC	-0.22 ± 0.36	–
AGAAAGCAAUAUUACGCGGA	-2.26 ± 0.13	-0.649 ± 0.13
AGAAAGCAAUAUUACGCGUC	-1.84 ± 0.12	-1.32 ± 0.15
AGAAAGCAAUAUUACGCGUG	-1.72 ± 0.087	-0.548 ± 0.093
AGAAAGCAAUAUUACGGAAU	-2.02 ± 0.15	-1.74 ± 0.2
AGAAAGCAAUAUUACGGACA	-0.632 ± 0.2	-0.869 ± 0.29
AGAAAGCAAUAUUACGGCAG	-0.958 ± 0.095	-1.28 ± 0.12
AGAAAGCAAUAUUACGGCGC	-0.688 ± 0.12	-1.01 ± 0.15
